# Experimental data reported in PMC2965066 (Science (New York, N.Y.), 2010).
# What was measured:
# YU2 gp120 [1] = biological target: T1, YU2 gp120 (HIV-1 (strain YU2), UniProt P35961); test: SPR
# YU2 gp120 [2] = biological target: T1, YU2 gp120; test: ELISA
binder,measurement,setting,value
"VRC03 (antibody, V domains shown) VH: QVQLVQSGAVIKTPGSSVKISCRASGYNFRDYSIHWVRLIPDKGFEWIGWIKPLWGAVSYARQLQGRVSMTRQLSQDPDDPDWGVAYMEFSGLTPADTAEYFCVRRGSCDYCGDFPWQYWGQGTVVVVSS VL: EIVLTQSPGILSLSPGETATLFCKASQGGNAMTWYQKRRGQVPRLLIYDTSRRASGVPDRFVGSGSGTDFFLTINKLDREDFAVYYCQQFEFFGLGSELEVH",Kd,YU2 gp120 [1],73.1 nM
same,binding result,YU2 gp120 [2],binds
